From patent publication US8497083B2, “Fructosyl amino acid oxidase” (priority 2009, dated 2013) come the findings set out here.

As usually defined, the Km is the concentration of substrate that gives half-maximal velocity.

Data set [1] addresses T1, fructosyl amino acid oxidase from Phaeosphaeria nodorum (PnFPOX, SEQ ID NO: 1) variant N56A (Parastagonospora nodorum, UniProt Q0UIL6, N56A). Kind of data set: Oxidase activity kinetics (4AA/TODB/POD), PnFPOX N56A mutant. The following applies: purified enzyme, 25° C., pH 7.0. The data set is classed as biochemical. From the text: (§1) As used herein “oxidase activity” is an enzymatic activity (Vmax) of the fructosyl amino acid oxidase to catalyze oxidation of fructosyl amino acid to generate 2-keto-D-glucose and the corresponding amino acid while utilizing oxygen as an electron acceptor. The oxidase activity may be assayed by measuring the amount of generated H2O2 by any methods known in the art, including by way of non-limiting example, reagents for H2O2 detection such as […] (4-aminoantipyrine/N,N-Bis(4-sulfobutyl)-3-methylaniline disodium salt/horseradish peroxidase) or by Pt electrode. As used herein in the context of the relative or quantitative activity, the oxidase activity is specifically defined to be the mole amount of the substrate (fructosyl amino acid) oxidized per unit time measured by the amount of generated H2O2 at 25° C. in 10 mM PPB, pH 7.0, 1.5 mM TODB, 2 U/ml horseradish peroxidase (POD), and 1.5 mM 4-aminoantipyrine (4AA). The formation of quinoneimine dye may be measured spectrophotometrically at 546 nm.
(§2) Escherichia coli BL21 (DE3) cells harboring expression vectors of N1-1 FAOD (SEQ ID NO: 2) mutants were grown in 150 ml of LB medium containing 50 μg/ml kanamycin at 37° C. After reaching an A660 value of 0.6, 0.3 mM IPTG was added and incubated at 25° C. for an additional 5 hours. The cells were collected by centrifugation and washed twice with 0.85% NaCl.aq. Then, the cells were resuspended in 10 mM Potassium Phosphate Buffer (PPB) pH 7.0 and lysed by ultrasonic homogenizer. The lysate was centrifuged at 10,000×g, 4° C. for 10 min, and the supernatant was centrifuged at 50,000 rpm, 4° C. for 60 min, then the supernatant was dialyzed against 10 mM PPB (pH 7.0). The oxidase activity was assayed at 25° C. in 10 mM PPB, pH 7.0, 1.5 mM TODB, 2 U/ml horseradish peroxidase (POD), and 1.5 mM 4-aminoantipyrine (4AA) in the presence of substrates (0.2, 0.5, 0.75, 1, 2, 5 mM f-^αVal […]). The formation of quinoneimine dye was measured spectrophotometrically at 546 nm. The dehydrogenase activity was assayed at 25° C. in 10 mM PPB (pH 7.0), 0.6 mM DCIP, and 6 mM methoxy PMS (mPMS) in the presence of substrates (0.2, 0.5, 1, 2, 5 mM f-^αVal or 5 mM f-^αVal-His).
(§3) Mutations were introduced using site-directed mutagenesis as in Example 1, and BL21 (DE3) cells were transformed with an expression vector containing wild-type or mutant PnFPOX (SEQ ID NO: 1). The cultured cells were resuspended in 10 mM PPB, pH 7.0, and lysed by sonication. The lysate was centrifuged at 10,000 g at 4° C. for 20 min, and the supernatant was centrifuged at 50,000 rpm at 4° C. for 60 min. The oxidase and dehydrogenase activities were measured as in Example 1.
(§4) BL21 (DE3) transformed with pEPN (pET28a-PnFPOX)-N56A was grown aerobically at 37° C. in LB medium (2 l) containing 50 μg kanamycin ml^−1. […]

For data set [2], the target named is T1, fructosyl amino acid oxidase from Phaeosphaeria nodorum (PnFPOX, SEQ ID NO: 1) variant N56A. The experiment in a line: Dehydrogenase activity kinetics (mPMS/DCIP), PnFPOX N56A mutant. Type of data set: biochemical. The settings on record: purified enzyme, 25° C., pH 7.0.
Text: (§5) As used herein, “dehydrogenase activity” is an enzymatic activity (Vmax) of the fructosyl amino acid oxidase to catalyze oxidation of fructosyl amino acid to generate 2-keto-D-glucose and the corresponding amino acid while utilizing an electron mediator other than oxygen as an electron acceptor. The dehydrogenase activity may be assayed by measuring the amount of electrons transferred to the mediator using, for example, one of mPMS/DCIP (1-methoxy-5-methylphenazinium methylsulfate/2,6-dichloroindophenol), cPES (trifluoro-acetate-1-(3-carboxy-propoxy)-5-ethyl-phenanzinium, NA BM31—1144 (N,N-bis-(hydroxyethyl)-3-methoxynitrosoaniline hydrochloride, NA BM31—1008 (N,N-bis-hydroxyethyl-4-nitrosoaniline) and N—N-4-dimethyl-nitrosoaniline.
(§6) As used herein in the context of the relative or quantitative activity, the dehydrogenase activity is specifically defined to be the mole amount of the substrate (fructosyl amino acid) oxidized per unit time measured by the amount of electrons transferred to the mediator at 25° C. in 10 mM PPB (pH 7.0), 0.6 mM DCIP, and 6 mM methoxy PMS (mPMS).
as §2
(§7) Mutations were introduced using site-directed mutagenesis as in Example 1, and BL21 (DE3) cells were transformed with an expression vector containing wild-type or mutant PnFPOX (SEQ ID NO: 1). The cultured cells were resuspended in 10 mM PPB, pH 7.0, and lysed by sonication. The lysate was centrifuged at 10,000 g at 4° C. for 20 min, and the supernatant was centrifuged at 50,000 rpm at 4° C. for 60 min. The oxidase and dehydrogenase activities were measured as in Example 1. […]

In data set [3] the test system is CC(C)[C@H](NCC1(O)OC[C@@H](O)[C@@H](O)[C@@H]1O)C(=O)N[C@@H](Cc1c[nH]cn1)C(=O)O. Kind of data set: Oxidase activity kinetics (4AA/TODB/POD), PnFPOX wild type. The data set is classed as biochemical, Phaeosphaeria nodorum. The following applies: other: 4AA/TODB/POD, 25° C., pH 7.0.
Text: as §1, §2, §3
(§8) The oxidase and dehydrogenase activities of the N56A mutant FAOD were measured. […]

Data set [4] deals with CC(C)[C@H](NCC1(O)OC[C@@H](O)[C@@H](O)[C@@H]1O)C(=O)O. The description is as above. The data set is classed as biochemical, Phaeosphaeria nodorum. The settings on record: other: 4AA/TODB/POD, 25° C., pH 7.0.
Text: as §1, §2, §3, §8

The test system is the same in data set [5]. Kind of data set: Dehydrogenase activity kinetics (mPMS/DCIP), PnFPOX wild type. The following applies: other: mPMS/DCIP, 25° C., pH 7.0. Type of data set: biochemical, Phaeosphaeria nodorum.
Text: As used herein, “dehydrogenase activity” is an enzymatic activity (Vmax) of the fructosyl amino acid oxidase to catalyze oxidation of fructosyl amino acid to generate 2-keto-D-glucose and the corresponding amino acid while utilizing an electron mediator other than oxygen as an electron acceptor. […]
as §6
Escherichia coli BL21 (DE3) cells harboring expression vectors of N1-1 FAOD (SEQ ID NO: 2) mutants were grown in 150 ml of LB medium containing 50 μg/ml kanamycin at 37° C. […] The formation of quinoneimine dye was measured spectrophotometrically at 546 nm. […]
Mutations were introduced using site-directed mutagenesis as in Example 1, and BL21 (DE3) cells were transformed with an expression vector containing wild-type or mutant PnFPOX (SEQ ID NO: 1). […] The oxidase and dehydrogenase activities were measured as in Example 1.
as §8

Data set [6] deals with CC(C)[C@H](NCC1(O)OC[C@@H](O)[C@@H](O)[C@@H]1O)C(=O)N[C@@H](Cc1c[nH]cn1)C(=O)O. The experiment in a line: Oxidase activity kinetics (4AA/TODB/POD), PnFPOX N56A mutant. Type of data set: biochemical, Phaeosphaeria nodorum. The settings on record: other: purified enzyme, 25° C., pH 7.0.
Text: as §1, §2, §3, §4

Data set [7] relates to CC(C)[C@H](NCC1(O)OC[C@@H](O)[C@@H](O)[C@@H]1O)C(=O)O. The data set is described as above. Type of data set: biochemical, Phaeosphaeria nodorum. The settings on record: other: purified enzyme, 25° C., pH 7.0.
Text: as §1, §2, §3, §4

For data set [8], the system named is CC(C)[C@H](NCC1(O)OC[C@@H](O)[C@@H](O)[C@@H]1O)C(=O)N[C@@H](Cc1c[nH]cn1)C(=O)O. The experiment in a line: Dehydrogenase activity kinetics (mPMS/DCIP), PnFPOX N56A mutant. The settings on record: other: purified enzyme, 25° C., pH 7.0. Type of data set: biochemical, Phaeosphaeria nodorum.
Text: as §5, §6, §2, §7

The subject of data set [9] is CC(C)[C@H](NCC1(O)OC[C@@H](O)[C@@H](O)[C@@H]1O)C(=O)O. Described as above. Type of data set: biochemical, Phaeosphaeria nodorum. The settings on record: other: purified enzyme, 25° C., pH 7.0.
Text: as §5, §6, §2, §7

Substrate in data set [10]: CC(C)[C@H](NCC1(O)OC[C@@H](O)[C@@H](O)[C@@H]1O)C(=O)O
Kind of data set: Dehydrogenase activity kinetics (mPMS/DCIP), N1-1 FAOD wild type. Type of data set: biochemical, Pichia sp. N1-1. The following applies: 25° C., pH 7.0.
Text: as §5, §6, §2
(§9) The recombinant FAOD was purified as follows. First, a water-soluble fraction containing the enzyme was prepared from recombinant Escherichia coli. E. coli containing the expression vector was cultured in 7 L LB medium (37° C., in 10 L fermenter, 50 μg/ml ampicillin), then the expression was induced with IPTG (final concentration: 0.3 mM) at about OD660=0.7 and culture temperature was lowered to 30° C. The cells were suspended in 100 mM PPb (pH 7.0) and disrupted four times using a French press. […]

Substrate in data set [11]: CC(C)[C@H](NCC1(O)OC[C@@H](O)[C@@H](O)[C@@H]1O)C(=O)O
Kind of data set: Oxidase activity kinetics (4AA/TODB/POD), N1-1 FAOD wild type. The data set is classed as biochemical, Pichia sp. N1-1. The following applies: 25° C., pH 7.0.
Text: as §1, §2, §9

Substrate in data set [12]: CC(C)[C@H](NCC1(O)OC[C@@H](O)[C@@H](O)[C@@H]1O)C(=O)O
Kind of data set: Oxidase activity kinetics (4AA/TODB/POD), N1-1 FAOD N47A mutant. Type of data set: biochemical, Pichia sp. N1-1. The settings on record: 25° C., pH 7.0.
Text: as §1, §2, §9

Substrate in data set [13]: CC(C)[C@H](NCC1(O)OC[C@@H](O)[C@@H](O)[C@@H]1O)C(=O)O
Kind of data set: Dehydrogenase activity kinetics (mPMS/DCIP), N1-1 FAOD N47A mutant. Type of data set: biochemical, Pichia sp. N1-1. The following applies: 25° C., pH 7.0.
Text: as §5, §6, §2, §9

Substitutions are numbered along the chain they refer to. Numbers in names are those of the source.

T1 sequence (Q0UIL6 whole entry N56A): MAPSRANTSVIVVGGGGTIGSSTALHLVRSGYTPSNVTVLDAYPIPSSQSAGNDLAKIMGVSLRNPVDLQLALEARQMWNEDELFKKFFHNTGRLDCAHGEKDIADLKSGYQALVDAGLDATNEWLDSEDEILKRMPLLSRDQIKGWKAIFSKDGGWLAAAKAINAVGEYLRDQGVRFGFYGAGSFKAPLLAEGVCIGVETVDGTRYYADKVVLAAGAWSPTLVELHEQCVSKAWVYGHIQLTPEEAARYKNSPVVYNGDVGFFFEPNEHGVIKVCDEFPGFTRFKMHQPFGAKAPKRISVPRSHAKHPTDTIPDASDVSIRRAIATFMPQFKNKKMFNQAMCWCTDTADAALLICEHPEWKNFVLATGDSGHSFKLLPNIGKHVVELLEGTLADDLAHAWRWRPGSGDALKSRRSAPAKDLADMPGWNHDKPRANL

`CC(C)[C@H](NCC1(O)OC[C@@H](O)[C@@H](O)[C@@H]1O)C(=O)N[C@@H](Cc1cnc[nH]1)C(=O)O` (stereo partly shown) [f-αValHis, fructosyl valyl histidine]: the Vmax in [1] came out at 1.90 U/mg; in [2], 3.40 U/mg.
Take “fructosyl amino acid oxidase from Phaeosphaeria nodorum (PnFPOX), wild type, SEQ ID NO: 1 (Parastagonospora nodorum SN15)”: the results for the Km in data set [3], in [4] and in data set [5] were 0.20 mM, 0.64 mM and 1.1 mM, respectively. Besides, the Vmax amounted to 2.97 U/mg in data set [3], 27.6 U/mg in data set [4] and 28.0 U/mg in data set [5].
For the molecule “fructosyl amino acid oxidase from Phaeosphaeria nodorum (PnFPOX, SEQ ID NO: 1) variant N56A (Parastagonospora nodorum SN15; N56A)”, the Km in data set [6] is listed as 0.092 mM; in [7], 0.086 mM; in data set [8], 0.074 mM; in [9], 1.6 mM.

B1: fructosyl amino acid oxidase from Pichia sp. N1-1 (N1-1 FAOD), wild type, SEQ ID NO: 2 (Pichia sp. N1-1) (protein)
chain: MESIIIVGAGTFGLSTALQLARDGYKNIKCFDKFPVPSEIAAGNDSNKIFHYDYVAPLAKPNSKERLSLEALHLWKTDPVYKPYYHPVGFILAASSDAPLLHDKEYYEELQKNGLRNYRYISTPEEFREYLPILKGPLPNWRGYVLDGDNGWLHARDSLKSAYEECKRLGVEFVFGDDGEIVELLNENGKLTGIRARSGAIFSAQKYVLSSGANAVTLLNFQRQLEGKCFTLAHFKVTDEEAKAFKSLPVLFNAEKGFFFEADENNEIKICNEYPGFTHTNESGESIPLYRMEIPLESALEIRQYLKETMPQFADRPFTKTRICWCTDSPDMQLILCTHPEYTNLIVASGDSGNSFKIMPIIGKYVSKVVTKGDKGLDPEDKECWKWRPETWDKRGQVRWGGRYRVADLNEIEEWVSVENPTPHKLE
notes: 427 aa
Regarding B1, the Michaelis-Menten constant (Km) in data set [10] (other: crude preparation) is 3.22 mM; in data set [10] (other: purified enzyme), 4.6 mM; in data set [11] (other: crude preparation), 2.64 mM; in [11] (other: purified enzyme), 4.8 mM. Besides, the Vmax in data set [10] (other: crude preparation) turned out to be 0.60 U/mg; in [10] (other: purified enzyme) it was 9.8 U/mg; in data set [11] (other: crude preparation), 0.71 U/mg; in [11] (other: purified enzyme) it was 9.3 U/mg.

B2: fructosyl amino acid oxidase from Pichia sp. N1-1 (N1-1 FAOD, SEQ ID NO: 2) variant N47A (Pichia sp. N1-1; N47A) (protein)
chain: B1 chain with N47A
notes: crude and purified
Take B2: the Km in [12] (other: crude preparation) was found to be 1.42 mM; in data set [12] (other: purified enzyme) it was 2.2 mM; in data set [13] (other: crude preparation) it was 9.13 mM; in data set [13] (other: purified enzyme) it was 6.2 mM. Also, the Vmax amounted to 0.11 U/mg in data set [12] (other: crude preparation), 1.4 U/mg in [12] (other: purified enzyme), 0.82 U/mg in data set [13] (other: crude preparation) and 6.0 U/mg in data set [13] (other: purified enzyme).
